Reference: the nanobody polyreactivity screen of Harvey et al. (2022)

Experiment: yeast display, Sf9 membrane polyspecificity reagent, FACS + sequencing; frameworks hold sequencing errors
Procedure, shortened: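 In a synthetic yeast display library (Saccharomyces cerevisiae BJ5465), nanobody expression was induced with galactose for 36–48 hours. FACS gates were set low and high (top ~1%) using anti-HA fluorescence for expression and streptavidin fluorescence for binding of the Sf9 membrane reagent. Each polyreactivity label is drawn from the gate of origin.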

Sequence	polyreactivity (PSR sort gate)
QVPLVESGGGLVQAGGSLRISCAASGSTIVGYSMGWYRQAHGKERELVADITSGGGITYYADSVKGRFTISRDNAKNTVYLQMNSLKPEYSAVYYCAARVVEIFHWAGDYWGQGTQVTVSS	low polyreactivity
QVQLVESGGGLFQAGGSLRLSCAASGIIFRYYAMGWSRQAPGKEREFVASINFSGSSTYYADSVKGRFTISRDKAKNTVYLQMNSLKPEDTAVYYCAAGRRWLYDYWGQGTQVTVSS	high polyreactivity
QVQLVESVGGLVQAGGSLRLSCAASGSIFGPNAMGWYRQAPGKERELVAAISLSTGSTYYADSVKGRFTISRDTAKNTVYLQMNSLKPEDTAVYYCAAYYVTPIYYYWGQGTQVTVSS	low polyreactivity
QVQLVESGGGLVQAGGSLRLSCAASGSIFYSYAMGWYRQAPGKERELVAAISFSGGSTYYADSVKGRFTISRDNAKNTVYLHMNSLKPEDPAVYYCNTLSADTFDYWGQGTQVTVSS	low polyreactivity
QVQLVESGGGLVQAGGSLRLSCAASGRNFLPNAMGWSRPAPGKERELVAAITSGGGSTYYADSVKGRFTISRDKAKNTVYLQMNSLKPEDTAVYYCAKQPYRGKYYYWGQGTQVTVSS	high polyreactivity
QVQLVESGGGLVQAGGSLRLSCAASGRTFYVNAMGWYRQAPGKERELVATITDRGGRTYYADSVKGRFTISRDNAKNTVYLQMNSLKPEDTAVYYCAATRWYEVDYWGQGTQVTVSS	low polyreactivity
QVQLVESGGGLVQAGGSLRLSCAASGSIFIANTMGWYRQAPGKERELVAAISSDGGSTYYADSVKGRFTISRDNAKNTVYLQMNSLKPVDTAVYYCAVDGLEIGDTGFDYWGQGTQVTVSS	low polyreactivity
QEQLQESGGGLVQEGGSLRLSCAASGNISPPADMGWYRQAPGKERELVASIGTGGTTNYADSVKGRFTISRDNAKNTVYLQMNSLKPDDTAVYYCAAVRYEYNPYDYWGQGTQVTVSS	low polyreactivity
QVQLVESGVGLVQAGGSLRLSCAASGRTFRSYTMGWYRQAPGKERELVAAINRGDRTYADSVKGRFTISRDNAKNTVYLQMNSLKPEDTAVYYCNARYYTHRYDYWGQGTQVTVSS	high polyreactivity
QVQLVESGGGLVQAGGSLRLSCAASGITFEIYAMGWYRQAPGKERELVAAITWRGGSTYYADSVKGRFTISRDNAKNTVYLQMNSLKPDDTAVYYCAAEQYSGEDWGDYWGQGTQVTVSS	low polyreactivity
QVQLVESGGGLVQAGGSLRLSCAASGSTFILNYMGWYRQAPGKERELVAAIDWGDSTTYYADSVKGRFTISRDNAKNTVYLQMNSLKPEDTAVYYCAADFAVSAFTRYPPTEYWGQGTQVTVSS	high polyreactivity
QVELQVSGGGLVRAGGSLRLSCAASGNIFDADIMGWYRQAPGKERELVASITGGGSTSYAESAKGRFTISRDNAKNAVYLQMNSLKPEDTAVYYCNAYFIYEGGWYYKAQYDYWGQGTQVTVSS	low polyreactivity
QVQLVESGGGLVQAGGSLRLSCAASGRIFIDYAMAWYRQAPGKESELVATNTSSGGSTYYADSVKGRFTISRDNAKNTVYLLMNSLNPEDTAVYFCNKEGSYDYDYWGQGTQVTVSS	low polyreactivity
QVQLVESGGGLVQAGGSLRLSCAASTYLRLLMLWDGIDLRLGKKGSWLTLLTLVVNSTYYADSVKGRFTISRDNAKNTVFLQMNSLKPEDTAVYYCNVDPYGTYARTHLEYWGQGTQVTVSS	low polyreactivity
QVQLVESGGGLVQAGGSLRLSCAASGRIFTGYTMGWYRQAPGKERELVAGITRGGSTYYADSVKGRFTISRDNAKNTVYLQMNSLKPEDTAVYYCAADYPRFWYHSWYVPAYYYWGQGTQVTVSS	high polyreactivity
QVQLVESGGGLVQAGGSLRLSCAASGITFWEYAMGWYRQAPWKERELVAAISRSGGSTYYADSVKGRFTISRDNAKNTVYLQMNSLKPEDTAVYYCADETRRPIYDYWGQGTQVTVSS	high polyreactivity
QVQLVESGGGLVQAGGSLRLSCAASGIIFWYYAMGWYRQAPGIERELVAAISQSGGRTYYADSVKGRFTISRDNAKKTVYLQMNSLKPEDTAVYYCAAEPYTGYGYWGQGTQVTVSS	high polyreactivity
